What is called Kd is the free concentration of one partner at which half of the binding sites on the other are occupied at equilibrium, for simple one-to-one binding. A lower Kd goes with tighter binding.

The text below walks through data of publication PMC12362618, “Development of the First Small-Molecule Inhibitor Targeting Oncostatin M for Treatment of Breast Cancer” (Journal of Medicinal Chemistry, 2025).

This assay addresses T1, glycoprotein 130 (UniProt P40189 23-619).
T1 construct: gp130 (glycoprotein 130), bought recombinant protein; also called gp130; source: bought: R&D Systems
T1 sequence (looked up): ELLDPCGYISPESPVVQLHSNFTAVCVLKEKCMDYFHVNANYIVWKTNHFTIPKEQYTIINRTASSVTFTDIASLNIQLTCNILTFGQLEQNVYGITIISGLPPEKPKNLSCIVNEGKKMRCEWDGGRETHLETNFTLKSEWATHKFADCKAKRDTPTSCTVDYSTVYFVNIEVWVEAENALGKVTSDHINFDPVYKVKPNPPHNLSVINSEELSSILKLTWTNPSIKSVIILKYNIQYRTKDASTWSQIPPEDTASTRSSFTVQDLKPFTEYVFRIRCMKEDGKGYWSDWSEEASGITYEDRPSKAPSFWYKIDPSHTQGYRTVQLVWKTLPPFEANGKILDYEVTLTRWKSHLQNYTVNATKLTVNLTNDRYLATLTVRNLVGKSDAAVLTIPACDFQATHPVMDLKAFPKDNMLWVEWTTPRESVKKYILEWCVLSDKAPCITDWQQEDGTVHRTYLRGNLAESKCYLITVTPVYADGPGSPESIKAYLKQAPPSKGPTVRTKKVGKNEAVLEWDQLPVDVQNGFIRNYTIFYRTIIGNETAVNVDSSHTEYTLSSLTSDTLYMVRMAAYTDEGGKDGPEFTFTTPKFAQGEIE
The experiment in a line: SPR; kinetics; OSM immobilised by EDC/NHS coupling on a carboxyl mixed self-assembled monolayer gold chip (Reichert SR7000), increasing concentrations of gp130 injected; 25 °C; PBS with 0.005% Tween-20; 30 μL/min. The note with it: both partners purified. A general note: SPR reads the build-up and loss of mass on a sensor chip optically.

B1: Oncostatin M (ligand, human, UniProt P13725 26-221, looked up)
chain: AAIGSCSKEYRVLLGQLQKQTDLMQDTSRLLDPYIRIQGLDVPKLREHCRERPGAFPSEETLRGLGRRGFLQTLNATLGCVLHRLADLEQRLPKAQDLERSGLNIEDLEKLQMARPNILGLRNNIYCMAQLLDNSDTAEPTKAGRGASQPPTPTPASDAFQRKLEGCRFLHGYHRFMHSVGRVFSKWGESPNRSRR
notes: Oncostatin M, human; about 24 kDa; immobilised for SPR; The construct is only 'as previously described'; also called OSM; source: recombinant OSM, 'as previously described'
Molecule B1 returned a Kd of 20.5 nM.
